Source: paper PMC2646141

Biological target: untagged wild type APOBEC3G (A3G) (human), Q9HC16
Assay: cross-linking; cleared lysate of transfected 293T cells treated with BM(PEO)3 (cysteine-reactive, 18 Å linker), 20°C, 1 h, quenched with DTT; SDS-PAGE and immunoblot for A3G; ~80 kD species; no RNase A, or RNase A after the crosslinking
Settings: remark: other sources report otherwise

B1: untagged wild type APOBEC3G (A3G), Q9HC16 1-384 (natural protein)
chain: MKPHFRNTVERMYRDTFSYNFYNRPILSRRNTVWLCYEVKTKGPSRPPLDAKIFRGQVYSELKYHPEMRFFHWFSKWRKLHRDQEYEVTWYISWSPCTKCTRDMATFLAEDPKVTLTIFVARLYYFWDPDYQEALRSLCQKRDGPRATMKIMNYDEFQHCWSKFVYSQRELFEPWNNLPKYYILLHIMLGEILRHSMDPPTFTFNFNNEPWVRGRHETYLCYEVERMHNDTWVLLNQRRGFLCNQAPHKHGFLEGRHAELCFLDVIPFWKLDLDQDYRVTCFTSWSPCFSCAQEMAKFISKNKHVSLCIFTARIYDDQGRCQEGLRTLAEAGAKISIMTYSEFKHCWDTFVDHQGCPFQPWDGLDEHSQDLSGRLRAILQNQEN
- stoichiometry N: 2
